Tests used:
RPL3 mRNA = experiment: co-translational capturing by qRT-PCR, RPL3 mRNA; type: binding, S. cerevisiae; settings: NTAP-Rrb1 purification, cycloheximide-treated cells; one representative experiment, qPCR triplicates
Method: (§1) Cells expressing Sqt1-TAP, NTAP-Rrb1, Syo1-FTpA and Yar1-TAP were grown at 30 °C in 400 ml YPD medium to an optical density (OD600) of 0.8, then cycloheximide was added to a final concentration of 0.2 mg ml^−1 and the flasks were kept, with intermittent vigorous shaking, on ice for 5 min. Cells were harvested by centrifugation for 5 min at 4 °C at 4,000 r.p.m., washed once with 20 ml of ice-cold lysis buffer (100 mM NaCl, 50 mM Tris-HCl (pH 7.5), 1.5 mM MgCl2, 0.1% NP-40 and 5% glycerol) containing 1 mM PMSF and 0.2 mg ml^−1 cycloheximide (lysis buffer-PC) and resuspended in 2 ml of lysis buffer-PC. Equal volumes of the resuspended cells were transferred into two 2.2 ml Eppendorf tubes, briefly centrifuged and resuspended in 600 μl of ice-cold lysis buffer-PC. To prevent RNA degradation, 4 μl of RiboLock (40 U μl^−1; Fermentas) was added. Then glass beads, corresponding to 1/3 of the lysis buffer volume, were added and the tubes were vigorously vortexed for 10 × 30 s with 30-s intervals on ice. Cell extracts were transferred to a new tube and, to maximize the yield, 400 μl of ice-cold lysis buffer-PC was used to rinse the glass beads. […]
(§2) For RNA isolation from the TEV eluate aliquot (∼450 μl), the TEV eluate was adjusted to 10 mM EDTA (pH 8.0) and 0.5% SDS. […] RNA concentrations (A260) were determined using a NanoDrop 1000 spectrophotometer (Thermo Scientific). […]

[1] = soluble expression in E. coli; type: physicochemical; settings: data not shown for Rpl10
RPL5 mRNA = experiment: co-translational capturing by qRT-PCR, RPL5 mRNA; type: binding, S. cerevisiae; settings: Syo1-FTpA purification, cycloheximide-treated cells; one representative experiment, qPCR triplicates
Method: as §1, §2

RPS3 mRNA = experiment: co-translational capturing by qRT-PCR, RPS3 mRNA; type: binding, S. cerevisiae; settings: Yar1-TAP purification, cycloheximide-treated cells; one representative experiment, qPCR triplicates
Method: as §1, §2

B1: Rrb1: dedicated chaperone of Rpl3; purified as NTAP-Rrb1 in b27 (protein, UniProt Q04225 1-511, looked up)
Ribosome assembly protein RRB1: MSKRSIEVNEEQDRVVSAKTESHSVPAIPASEEQDAPKNDLEEQLSDEFDSDGEIIEIDGDDEINDEDDLRKKQEEAETLVQKDQSEGNKEKIQELYLPHMSRPLGPDEVLEADPTVYEMLHNVNMPWPCLTLDVIPDTLGSERRNYPQSILLTTATQSSRKKENELMVLALSNLAKTLLKDDNEGEDDEEDDEDDVDPVIENENIPLRDTTNRLKVSPFAISNQEVLTATMSENGDVYIYNLAPQSKAFSTPGYQIPKSAKRPIHTVKNHGNVEGYGLDWSPLIKTGALLSGDCSGQIYFTQRHTSRWVTDKQPFTVSNNKSIEDIQWSRTESTVFATAGCDGYIRIWDTRSKKHKPAISVKASNTDVNVISWSDKIGYLLASGDDNGTWGVWDLRQFTPSNADAVQPVAQYDFHKGAITSIAFNPLDESIVAVGSEDNTVTLWDLSVEADDEEIKQQAAETKELQEIPPQLLFVHWQKEVKDVKWHKQIPGCLVSTGTDGLNVWKTISV
Q: For B1, which “enrichment of the specific ribosomal protein mRNA (RPL3)” value (RPL3 mRNA) is on record?
A: roughly 100 -fold

Q: What about the “soluble expression in E. coli” value [1] of the same molecule?
A: inefficient expression of soluble Rrb1

B2: Syo1: transport adaptor, chaperone of Rpl5 (and Rpl11) (protein)
chain: MGRSKKRSRASSSRLNPLRKAGSNDNNKDTNVVNKKLQPLLQNLSSVVPNDRSIALSSISVLCEDAHMRQLLLKEKLVPIILNKLLNDSNSDIVVESFGLLRNLSLEEGYDVSIYLWRSDIWTSITSNFGRIVESLSALQAAEQQPQLKPAGKSKIESKRLLFDFADNLLSLVVALSNGSDDILNEILTESKINEIFQVISQLLKYGVEKLPINLFNTTLDLIYDLSSESFEFIDHVSNNELLSQFLNGLSPALHPQANELTKVLIEGIHCQFLDMKITYDQCNKMIHSVCHSINNIDPVQLVNDINNPVEIGPATSKDESSKVITKIKDYNAKRNESMIKLQSIEIAIDLITAIIEIVASKYESPESQEVAIPEELINTLTNFLPHVFMILKDTFTSRILIGWNNLIWLFVSLSLTELSGELLTTLWSYVTQLDSQDDLSIKIGRMGCIWALLKLIFPDGAFESENRALINVQMLNNSGFARGIIEEFQNNNDLELQQKCINVLSTYAMIQGQIDANKEIGQFFIQTLTQLNVRPEILIEMTNSLFQIYGDASYDYNEPIFVRGGFLSILKDQVVPNLRQQFKMVDKNKNPELKERCHDCFTTLDSFIHYKMNENSTNQ
modifications: left off: FTpA, end not stated, kept
Q: Which “enrichment of the specific ribosomal protein mRNA (RPL5)” value (RPL5 mRNA) does the source give for B2 here?
A: roughly 100 -fold

B3: Yar1: ankyrin-repeat protein, chaperone of Rps3 (protein)
chain: MGLHSEPLDQEDQDTIILDARAGDLDSLKDIFTTLVSPELLSTCKESESDSTALHMAAANGHIETVRYILETVSRANSAEDLKAFVNEVNKTGNTALHWASLNGKLDVVKLLCDEYEADPFIRNKFGHDAIFEAENSGKEEVETYFLKKYDVEPEDDEEDTQTEGKNSVQITKGTEIEQVTKEATEALREETEKLNINKD
modifications: left off: TAP, end not stated, kept
notes: ankyrin-repeat protein, chaperone of Rps3
Q: For B3, which “enrichment of the specific ribosomal protein mRNA (RPS3)” value (RPS3 mRNA) is on record?
A: roughly 100 -fold
